T1: LNX2_1, Q8N448
T1 sequence (Q8N448 228-328, limits assumed, looked up): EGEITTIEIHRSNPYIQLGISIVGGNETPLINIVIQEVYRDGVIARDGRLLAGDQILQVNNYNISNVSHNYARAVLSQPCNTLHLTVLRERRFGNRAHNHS

B1: HPV35-E6, P27228 (peptide)
chain: SKPTRRETEV
B2: HPV59-E6, Q81964 (peptide)
chain: QRQARSETLV
B3: HPV30-E6, P36809 (peptide)
chain: RHTTSTETAV
B4: ATP2B4, P23634 (peptide)
chain: SSLQSLETSV
B5: HPV18-E6, P06463 (peptide)
chain: RLQRRRETQV
B6: FRMPD4, Q14CM0 (peptide)
chain: RLPKIKETTV
B7: DOCK4, Q8N1I0 (peptide)
chain: RPLPRKVSQL
B8: SARS-CoV2-E, P0DTC4 (peptide)
chain: NLNSSRVPDLLV

Columns and labels:
Experiment in all cases: holdup assay
Design in all cases: key: below the threshold = too weak to quantify, mostly under pKd 3.1 to 4
LNX1_4, Q8TBB1 = biological target: LNX1_4, Q8TBB1
Sequence of LNX1_4, Q8TBB1 (Q8TBB1 631-726): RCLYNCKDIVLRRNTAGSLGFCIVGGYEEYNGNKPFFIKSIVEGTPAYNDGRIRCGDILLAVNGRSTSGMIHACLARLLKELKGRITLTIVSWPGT

LNX2_1, Q8N448 = biological target: T1, LNX2_1, Q8N448
O00233 = conditions: plain residues with an end cap or a label only (N-terminal biotin on a linker: ttds)
O00560 = conditions: plain residues with an end cap or a label only (N-terminal biotin on a linker: ttds)
O15021 = conditions: plain residues with an end cap or a label only (N-terminal biotin on a linker: ttds)
O43166 = conditions: plain residues with an end cap or a label only (N-terminal biotin on a linker: ttds)
O60759 = conditions: plain residues with an end cap or a label only (N-terminal biotin on a linker: ttds)
O75970 = conditions: plain residues with an end cap or a label only (N-terminal biotin on a linker: ttds)
Q12923 = conditions: plain residues with an end cap or a label only (N-terminal biotin on a linker: ttds)
Q13009 = conditions: plain residues with an end cap or a label only (N-terminal biotin on a linker: ttds)
Q13368 = conditions: plain residues with an end cap or a label only (N-terminal biotin on a linker: ttds)
Q5TCQ9 = conditions: plain residues with an end cap or a label only (N-terminal biotin on a linker: ttds)
Q6ZWJ1 = conditions: plain residues with an end cap or a label only (N-terminal biotin on a linker: ttds)
Q70Z35 = conditions: plain residues with an end cap or a label only (N-terminal biotin on a linker: ttds)
Q8IUC4 = conditions: plain residues with an end cap or a label only (N-terminal biotin on a linker: ttds)
Q8TB45 = conditions: plain residues with an end cap or a label only (N-terminal biotin on a linker: ttds)
Q8TDM6 = conditions: plain residues with an end cap or a label only (N-terminal biotin on a linker: ttds)
Q8TEW0 = conditions: plain residues with an end cap or a label only (N-terminal biotin on a linker: ttds)
Q92614 = conditions: plain residues with an end cap or a label only (N-terminal biotin on a linker: ttds)
Q96HC4 = conditions: plain residues with an end cap or a label only (N-terminal biotin on a linker: ttds)
Q96JB8 = conditions: plain residues with an end cap or a label only (N-terminal biotin on a linker: ttds)
Q96JY6 = conditions: plain residues with an end cap or a label only (N-terminal biotin on a linker: ttds)
Q96SB3 = conditions: plain residues with an end cap or a label only (N-terminal biotin on a linker: ttds)
Q9C0E4 = conditions: plain residues with an end cap or a label only (N-terminal biotin on a linker: ttds)
Q9H190 = conditions: plain residues with an end cap or a label only (N-terminal biotin on a linker: ttds)
Q9NR12 = conditions: plain residues with an end cap or a label only (N-terminal biotin on a linker: ttds)
Q9P227 = conditions: plain residues with an end cap or a label only (N-terminal biotin on a linker: ttds)
Q9UDY2 = conditions: plain residues with an end cap or a label only (N-terminal biotin on a linker: ttds)
Q9UMS6 = conditions: plain residues with an end cap or a label only (N-terminal biotin on a linker: ttds)
Q9Y3R0 = conditions: plain residues with an end cap or a label only (N-terminal biotin on a linker: ttds)
[1] = plain residues with an end cap or a label only (N-terminal biotin on a linker: ttds)
[2] = plain residues with an end cap or a label only (N-terminal biotin on a linker: none)

Binder	pKd (O00233)	pKd (O00560)	pKd (O15021)	pKd (O43166)	pKd (O60759)	pKd (O75970)	pKd (Q12923)	pKd (Q13009)	pKd (Q13368)	pKd (Q5TCQ9)	pKd (Q6ZWJ1)	pKd (Q70Z35)	pKd (Q8IUC4)	pKd (Q8TEW0)	pKd (Q92614)	pKd (Q96HC4)	pKd (Q96JB8)	pKd (Q96JY6)	pKd (Q96SB3)	pKd (Q9C0E4)	other results
B1																					pKd (LNX1_4, Q8TBB1; [1]): 3.49; pKd (LNX2_1, Q8N448; [1]): below the threshold
B2	below the threshold	below the threshold	below the threshold	below the threshold	below the threshold	below the threshold	below the threshold	below the threshold	below the threshold	below the threshold	below the threshold	below the threshold	below the threshold	below the threshold	below the threshold	below the threshold	below the threshold	below the threshold	below the threshold	below the threshold	pKd (Q8TB45): below the threshold; pKd (Q8TDM6): below the threshold; pKd (Q9H190): below the threshold; pKd (Q9NR12): below the threshold; pKd (Q9P227): below the threshold; pKd (Q9UDY2): below the threshold; pKd (Q9UMS6): below the threshold; pKd (Q9Y3R0): below the threshold
B3	below the threshold	below the threshold	below the threshold	below the threshold	below the threshold	below the threshold	below the threshold	below the threshold	below the threshold	below the threshold	below the threshold	below the threshold	below the threshold	below the threshold	below the threshold	below the threshold	below the threshold	below the threshold	below the threshold	below the threshold	pKd (Q8TB45): below the threshold; pKd (Q8TDM6): below the threshold; pKd (Q9H190): below the threshold; pKd (Q9NR12): below the threshold; pKd (Q9P227): below the threshold; pKd (Q9UDY2): below the threshold; pKd (Q9UMS6): below the threshold; pKd (Q9Y3R0): below the threshold
B4	below the threshold	below the threshold	below the threshold	below the threshold	below the threshold	below the threshold	below the threshold	below the threshold	below the threshold	below the threshold	below the threshold	below the threshold	below the threshold	below the threshold	below the threshold	below the threshold	below the threshold	below the threshold	below the threshold	below the threshold	pKd (Q8TB45): below the threshold; pKd (Q8TDM6): below the threshold; pKd (Q9H190): below the threshold; pKd (Q9NR12): below the threshold; pKd (Q9P227): below the threshold; pKd (Q9UDY2): below the threshold; pKd (Q9UMS6): below the threshold; pKd (Q9Y3R0): below the threshold
B5																					pKd (LNX1_4, Q8TBB1; [1]): 4.03; pKd (LNX2_1, Q8N448; [1]): below the threshold
B6	below the threshold	below the threshold	below the threshold	below the threshold	below the threshold	below the threshold	below the threshold	below the threshold	below the threshold	below the threshold	below the threshold	below the threshold	below the threshold	below the threshold	below the threshold	below the threshold	below the threshold	below the threshold	below the threshold	below the threshold	pKd (Q9H190): below the threshold; pKd (Q9NR12): below the threshold; pKd (Q9P227): below the threshold; pKd (Q9UDY2): below the threshold; pKd (Q9UMS6): below the threshold; pKd (Q9Y3R0): below the threshold
B7	below the threshold	below the threshold	below the threshold	below the threshold	below the threshold	below the threshold	below the threshold	below the threshold	below the threshold	below the threshold	below the threshold	below the threshold	below the threshold	below the threshold	below the threshold	below the threshold	below the threshold	below the threshold	below the threshold	below the threshold	pKd (Q9H190): below the threshold; pKd (Q9NR12): below the threshold; pKd (Q9P227): below the threshold; pKd (Q9UDY2): below the threshold; pKd (Q9UMS6): below the threshold; pKd (Q9Y3R0): below the threshold
B8																					pKd (LNX1_4, Q8TBB1; [2]): below the threshold; pKd (LNX2_1, Q8N448; [2]): below the threshold

— publication PMC9482650, “Quantitative fragmentomics allow affinity mapping of interactomes” (Nature Communications, 2022)
